Patent publication US20140378374A1, “METHODS OF TREATMENT” (GlaxoSmithKline Intellectual Property (No.2) Limited, priority 2013, published 2014)

Columns and labels:
[1] = test system: patients with T2DM; test: Phase 3 pooled analysis (Harmony 2, 4, 5, 8) of efficacy and safety by renal impairment severity, through primary endpoint (26 to 52 weeks)
Experimental: Patients with T2DM were enrolled in 3 similarly designed Phase 3 studies ^11-13 (Harmony 2, Harmony 4 and Harmony 5) and one Phase 3 study in patients with varying degrees of renal impairment (Harmony 8). ^10 These studies were randomized, double-blind (one open-label), active- (sitagliptin, pioglitazone, or glimepiride) or placebo-controlled, parallel-group, multicenter trials in which albiglutide (30 to 50 mg) was administered once weekly. In all 4 studies, men and nonpregnant women who were ≧18 years of age with a historical diagnosis of T2DM, and who were inadequately controlled (HbA1c≧7.0% and ≦10.0%) on diet and exercise and/or their current regimen of anti-diabetic agents (ie, metformin, thiazolidinedione, sulfonylurea, or any combination of these oral anti-diabetic medications) were eligible to enroll. Additional eligibility criteria included fasting C peptide of ≧0.8 ng/mL (≧0.26 nmol/L) and BMI between 20 and 45 kg/m^2. Harmony 8, the study in CKD patients, required estimated GFR≧15 and <90 mL/min/1.73 m^2, whereas the other 3 studies required estimated GFR>60 mL/min/1.73 m^2. […] Patients who met additional exclusion criteria, including requirements for levels of total bilirubin, alanine aminotransferase, aspartate aminotransferase, amylase, lipase, fasting triglycerides, and hemoglobin were also excluded.
Efficacy (HbA1c, fasting plasma glucose [FPG] and body weight) was assessed in each of the 4 studies by change from baseline to the primary endpoint (week 26 to week 52) using last observation carried forward for missing data. Rescue medications were allowed in subjects with persistent hyperglycemia (REF), however, efficacy data obtained after hyperglycemic rescue were not included and replaced with pre-rescue values for efficacy evaluation. Safety was assessed by monitoring the incidence of treatment emergent adverse events throughout the studies.
To evaluate efficacy and tolerability in different renal population, efficacy and tolerability data from patients with pop PK sample across 4 Phase 3 studies were extracted. Descriptive analysis were conducted up to primary endpoint (week 52 for Harmony 2, Harmony 4 and Harmony 5 and week 26 for study Harmony 8). Baseline demographics are summarized by renal impairment severity (normal, mild, moderate and severe). Efficacy parameters such as change from baseline of HbA1c, FPG, weight are also summarized by renal impairment severity. LOCF (Last Observation Carried Forward) approach is used in efficacy evaluation. Except for hypoglycemia, tolerability (AE, SAE and AE cause withdraw) were summarized by renal impairment severity for all data up to primary endpoint including post-rescue data. Hypoglycemia events (severe and documented symptomatic) were evaluated by renal impairment severity only include pre-rescue data.

[2] = test system: patients with type 2 diabetes; details: head-to-head trial; cited from earlier work
[3] = range over renal function groups of the pooled analysis

With “Albiglutide: recombinant fusion protein of 2 copies of modified human GLP-1 (fragment 7-36(A8G)) genetically fused in series to recombinant human serum albumin” the neutralizing anti-albiglutide antibodies ([1]; 4 trials of the pooled analysis) was “none of the antibodies were neutralizing”, the “Pre-Rescue Hypoglycemia: Documented Symptomatic, With background SU” value ([1]; Mild) was 70 (17) N (%) and the “Pre-Rescue Hypoglycemia: Documented Symptomatic, Without background SU” value ([1]; Mild) was 3 (1.4) N (%). The “Pre-Rescue Hypoglycemia: Severe, With background SU” value ([1]; Mild) was 1 (0.2) N (%), the “Pre-Rescue Hypoglycemia: Severe, Without background SU” value ([1]; Mild) was 0 (0) N (%) and the “AEs leading to withdrawal” value ([1]; Mild (n = 633)) was 37 (5.8) N (%). The Abdominal distention ([1]; Mild (n = 633)) was 5 (0.8) N (%), the Anemia ([1]; Mild (n = 633)) was 15 (2.4) N (%) and the “Any AE” value ([1]; Mild (n = 633)) was 511 (81) N (%). The Constipation ([1]; Mild (n = 633)) was 25 (3.9) N (%), the Diarrhea ([1]; Mild (n = 633)) was 55 (8.7) N (%) and the Edema peripheral ([1]; Mild (n = 633)) was 21 (3.3) N (%). For the same substance, the “Gastrointestinal disorders system organ class: Any event” value ([1]; Mild (n = 633)) was 205 (32) N (%), the Injection site reaction ([1]; Mild (n = 633)) was 51 (8.1) N (%) and the Nasopharyngitis ([1]; Mild (n = 633)) was 51 (8.1) N (%). For the same substance, the Nausea ([1]; Mild (n = 633)) was 60 (9.5) N (%), the “Pre-Rescue Hypoglycemia: Documented Symptomatic (overall)” value ([1]; Mild (n = 633)) was 73 (12) N (%) and the “Pre-Rescue Hypoglycemia: Severe (overall)” value ([1]; Mild (n = 633)) was 1 (0.2) N (%). For the same substance, the “Renal Impairment (adverse event)” value ([1]; Mild (n = 633)) was 0 (0) N (%), the “Serious AE” value ([1]; Mild (n = 633)) was 52 (8.2) N (%) and the “Pre-Rescue Hypoglycemia: Documented Symptomatic, With background SU” value ([1]; Moderate) was 28 (20) N (%). The “Pre-Rescue Hypoglycemia: Documented Symptomatic, Without background SU” value ([1]; Moderate) was 0 (0) N (%), the “Pre-Rescue Hypoglycemia: Severe, With background SU” value ([1]; Moderate) was 0 (0) N (%) and the “Pre-Rescue Hypoglycemia: Severe, Without background SU” value ([1]; Moderate) was 0 (0) N (%). For the same substance, the “AEs leading to withdrawal” value ([1]; Moderate (n = 175)) was 11 (6.3) N (%), the Abdominal distention ([1]; Moderate (n = 175)) was 2 (1.1) N (%) and the Anemia ([1]; Moderate (n = 175)) was 5 (2.9) N (%). The “Any AE” value ([1]; Moderate (n = 175)) was 139 (79) N (%), the Constipation ([1]; Moderate (n = 175)) was 11 (6.3) N (%) and the Diarrhea ([1]; Moderate (n = 175)) was 23 (13) N (%). The Edema peripheral ([1]; Moderate (n = 175)) was 4 (2.3) N (%), the “Gastrointestinal disorders system organ class: Any event” value ([1]; Moderate (n = 175)) was 58 (33) N (%) and the Injection site reaction ([1]; Moderate (n = 175)) was 12 (6.9) N (%). The Nasopharyngitis ([1]; Moderate (n = 175)) was 14 (8.0) N (%), the Nausea ([1]; Moderate (n = 175)) was 13 (7.4) N (%) and the “Pre-Rescue Hypoglycemia: Documented Symptomatic (overall)” value ([1]; Moderate (n = 175)) was 28 (16) N (%). For the same substance, the “Pre-Rescue Hypoglycemia: Severe (overall)” value ([1]; Moderate (n = 175)) was 0 (0) N (%), the “Renal Impairment (adverse event)” value ([1]; Moderate (n = 175)) was 3 (1.7) N (%) and the “Serious AE” value ([1]; Moderate (n = 175)) was 17 (9.7) N (%). For the same substance, the “Pre-Rescue Hypoglycemia: Documented Symptomatic, With background SU” value ([1]; Normal) was 44 (21) N (%), the “Pre-Rescue Hypoglycemia: Documented Symptomatic, Without background SU” value ([1]; Normal) was 0 (0) N (%) and the “Pre-Rescue Hypoglycemia: Severe, With background SU” value ([1]; Normal) was 1 (0.3) N (%). For the same substance, the “Pre-Rescue Hypoglycemia: Severe, Without background SU” value ([1]; Normal) was 0 (0) N (%), the “AEs leading to withdrawal” value ([1]; Normal (n = 286)) was 11 (3.8) N (%) and the Abdominal distention ([1]; Normal (n = 286)) was 2 (0.7) N (%). The Anemia ([1]; Normal (n = 286)) was 6 (2.1) N (%), the “Any AE” value ([1]; Normal (n = 286)) was 232 (81) N (%) and the Constipation ([1]; Normal (n = 286)) was 8 (2.8) N (%). The Diarrhea ([1]; Normal (n = 286)) was 20 (7.0) N (%), the Edema peripheral ([1]; Normal (n = 286)) was 5 (1.7) N (%) and the “Gastrointestinal disorders system organ class: Any event” value ([1]; Normal (n = 286)) was 76 (27) N (%). For the same substance, the Injection site reaction ([1]; Normal (n = 286)) was 32 (11) N (%), the Nasopharyngitis ([1]; Normal (n = 286)) was 19 (6.6) N (%) and the Nausea ([1]; Normal (n = 286)) was 23 (8.0) N (%). For the same substance, the “Pre-Rescue Hypoglycemia: Documented Symptomatic (overall)” value ([1]; Normal (n = 286)) was 44 (15) N (%), the “Pre-Rescue Hypoglycemia: Severe (overall)” value ([1]; Normal (n = 286)) was 1 (0.3) N (%) and the “Renal Impairment (adverse event)” value ([1]; Normal (n = 286)) was 0 (0) N (%). The “Serious AE” value ([1]; Normal (n = 286)) was 17 (5.9) N (%), the “Pre-Rescue Hypoglycemia: Documented Symptomatic, With background SU” value ([1]; Severe) was 4 (29) N (%) and the “Pre-Rescue Hypoglycemia: Documented Symptomatic, Without background SU” value ([1]; Severe) was 0 (0) N (%). For the same substance, the “Pre-Rescue Hypoglycemia: Severe, With background SU” value ([1]; Severe) was 0 (0) N (%), the “Pre-Rescue Hypoglycemia: Severe, Without background SU” value ([1]; Severe) was 0 (0) N (%) and the “AEs leading to withdrawal” value ([1]; Severe (n = 19)) was 2 (11) N (%). For the same substance, the Abdominal distention ([1]; Severe (n = 19)) was 2 (11) N (%), the Anemia ([1]; Severe (n = 19)) was 4 (21) N (%) and the “Any AE” value ([1]; Severe (n = 19)) was 12 (63) N (%). The Constipation ([1]; Severe (n = 19)) was 2 (11) N (%), the Diarrhea ([1]; Severe (n = 19)) was 4 (21) N (%) and the Edema peripheral ([1]; Severe (n = 19)) was 3 (16) N (%). The “Gastrointestinal disorders system organ class: Any event” value ([1]; Severe (n = 19)) was 8 (42) N (%), the Injection site reaction ([1]; Severe (n = 19)) was 1 (5.3) N (%) and the Nasopharyngitis ([1]; Severe (n = 19)) was 1 (5.3) N (%). The Nausea ([1]; Severe (n = 19)) was 3 (16) N (%), the “Pre-Rescue Hypoglycemia: Documented Symptomatic (overall)” value ([1]; Severe (n = 19)) was 4 (21) N (%) and the “Pre-Rescue Hypoglycemia: Severe (overall)” value ([1]; Severe (n = 19)) was 0 (0) N (%). The “Renal Impairment (adverse event)” value ([1]; Severe (n = 19)) was 4 (21) N (%), the “Serious AE” value ([1]; Severe (n = 19)) was 0 (0) N (%) and the “treatment effect as measured by HbA1c and FPG vs GFR” value ([1]; change from baseline, scatter plot) was “trend towards greater reductions as GFR decreased”. For the same substance, the thyroid cancer ([1]; in vivo) was “No patient developed thyroid cancer”, the “nausea, percentage” value ([1]; mild group) was 9.5% and the “vomiting, percentage” value ([1]; mild group) was 3.2%. For the same substance, the “nausea, percentage” value ([1]; moderate group) was 7.4%, the “vomiting, percentage” value ([1]; moderate group) was 2.9% and the “nausea, percentage” value ([1]; normal group) was 8.0%. For the same substance, the “vomiting, percentage” value ([1]; normal group) was 2.1%, the “subjects with severe hypoglycemic events” value ([1]; normal, mild renal impairment, with background SU use) was 2 and the “patients with probable pancreatitis at least possibly related to study drug” value ([1]; one with mild and one with moderate renal impairment) was “Two”. The “nausea percentage, range” value [1, 3] was 7-16%, the “vomiting percentage, range” value [1, 3] was 2-5% and the “incidence of anti-albiglutide antibodies” value ([1]; range over the 4 trials of the pooled analysis) was 2.8% to 8.1. For the same substance, the “nausea, percentage” value ([1]; severe group) was 16%, the “vomiting, percentage” value ([1]; severe group) was 5.3% and the nausea, percentage [2] was 10%. The vomiting, percentage [2] was 5%.
